{"source": "patent US10196657B2", "about": "“Methods of producing 7-carbon chemicals via methyl-ester shielded carbon chain elongation” (INVISTA North America S.á r.l., priority 2012, dated 2019)", "molecules": {"B1": {"name": "SEQ ID NO 12: Escherichia coli diamine ω-transaminase, Genbank Accession No. AAA57874.1 (protein, listed as Escherichia coli)", "chain": "MNRLPSSASALACSAHALNLIEKRTLDHEEMKALNREVIEYFKEHVNPGFLEYRKSVTAGGDYGAVEWQAGSLNTLVDTQGQEFIDCLGGFGIFNVGHRNPVVVSAVQNQLAKQPLHSQELLDPLRAMLAKTLAALTPGKLKYSFFCNSGTESVEAALKLAKAYQSPRGKFTFIATSGAFHGKSLGALSATAKSTFRKPFMPLLPGFRHVPFGNIEAMRTALNECKKTGDDVAAVILEPIQGEGGVILPPPGYLTAVRKLCDEFGALMILDEVQTGMGRTGKMFACEHENVQPDILCLAKALGGGVMPIGATIATEEVFSVLFDNPFLHTTTFGGNPLACAAALATINVLLEQNLPAQAEQKGDMLLDGFRQLAREYPDLVQEARGKGMLMAIEFVDNEIGYNFASEMFRQRVLVAGTLNNAKTIRIEPPLTLTIEQCELVIKAARKALAAMRVSVEEA"}, "B2": {"name": "β-ketothiolase encoded by bktB from Cupriavidus necator: β-ketothiolase classified under EC 2.3.1.16, gene product of bktB (protein, UniProt Q0KBP1 1-394, looked up)", "Beta-ketothiolase BktB": "MTREVVVVSGVRTAIGTFGGSLKDVAPAELGALVVREALARAQVSGDDVGHVVFGNVIQTEPRDMYLGRVAAVNGGVTINAPALTVNRLCGSGLQAIVSAAQTILLGDTDVAIGGGAESMSRAPYLAPAARWGARMGDAGLVDMMLGALHDPFHRIHMGVTAENVAKEYDISRAQQDEAALESHRRASAAIKAGYFKDQIVPVVSKGRKGDVTFDTDEHVRHDATIDDMTKLRPVFVKENGTVTAGNASGLNDAAAAVVMMERAEAERRGLKPLARLVSYGHAGVDPKAMGIGPVPATKIALERAGLQVSDLDVIEANEAFAAQACAVTKALGLDPAKVNPNGSGISLGHPIGATGALITVKALHELNRVQGRYALVTMCIGGGQGIAAIFERI"}, "B3": {"name": "SEQ ID NO 4: Segniliparus rugosus carboxylate reductase, Genbank Accession No. EFV11917.1 (protein, listed as Segniliparus rugosus)", "chain": "MGDGEERAKRFFQRIGELSATDPQFAAAAPDPAVVEAVSDPSLSFTRYLDTLMRGYAERPALAHRVGAGYETISYGELWARVGAIAAAWQADGLAPGDFVATVGFTSPDYVAVDLAAARSGLVSVPLQAGASLAQLVGILEETEPKVLAASASSLEGAVACALAAPSVQRLVVFDLRGPDASESAADERRGALADAEEQLARAGRAVVVETLADLAARGEALPEAPLFEPAEGEDPLALLIYTSGSTGAPKGAMYSQRLVSQLWGRTPVVPGMPNISLHYMPLSHSYGRAVLAGALSAGGTAHFTANSDLSTLFEDIALARPTFLALVPRVCEMLFQESQRGQDVAELRERVLGGRLLVAVCGSAPLSPEMRAFMEEVLGFPLLDGYGSTEALGVMRNGIIQRPPVIDYKLVDVPELGYRTTDKPYPRGELCIRSTSLISGYYKRPEITAEVFDAQGYYKTGDVMAEIAPDHLVYVDRSKNVLKLSQGEFVAVAKLEAAYGTSPYVKQIFVYGNSERSFLLAVVVPNAEVLGARDQEEAKPLIAASLQKIAKEAGLQSYEVPRDFLIETEPFTTQNGLLSEVGKLLRPKLKARYGEALEARYDEIAHGQADELRALRDGAGQRPVVETVVRAAVAISGSEGAEVGPEANFADLGGDSLSALSLANLLHDVFEVEVPVRIIIGPTASLAGIAKHIEAERAGASAPTAASVHGAGATRIRASELTLEKFLPEDLLAAAKGLPAADQVRTVLLTGANGWLGRFLALEQLERLARSGQDGGKLICLVRGKDAAAARRRIEETLGTDPALAARFAELAEGRLEVVPGDVGEPKFGLDDAAWDRLAEEVDVIVHPAALVNHVLPYHQLFGPNVVGTAEIIRLAITAKRKPVTYLSTVAVAAGVEPSSFEEDGDIRAVVPERPLGDGYANGYGNSKWAGEVLLREAHELVGLPVAVFRSDMILAHTRYTGQLNVPDQFTRLVLSLLATGIAPKSFYQQGAAGERQRAHYDGIPVDFTAEAITTLGAEPSWFDGGAGFRSFDVFNPHHDGVGLDEFVDWLIEAGHPISRIDDHKEWFARFETAVRGLPEAQRQHSLLPLLRAYSFPHPPVDGSVYPTGKFQGAVKAAQVGSDHDVPHLGKALIVKYADDLKALGLL"}, "B4": {"name": "SEQ ID NO 8: Chromobacterium violaceum ω-transaminase, Genbank Accession No. AAQ59697.1 (protein, listed as Chromobacterium violaceum)", "chain": "MQKQRTTSQWRELDAAHHLHPFTDTASLNQAGARVMTRGEGVYLWDSEGNKIIDGMAGLWCVNVGYGRKDFAEAARRQMEELPFYNTFFKTTHPAVVELSSLLAEVTPAGFDRVFYTNSGSESVDTMIRMVRRYWDVQGKPEKKTLIGRWNGYHGSTIGGASLGGMKYMHEQGDLPIPGMAHIEQPWWYKHGKDMTPDEFGVVAARWLEEKILEIGADKVAAFVGEPIQGAGGVIVPPATYWPEIERICRKYDVLLVADEVICGFGRTGEWFGHQHFGFQPDLFTAAKGLSSGYLPIGAVFVGKRVAEGLIAGGDFNHGFTYSGHPVCAAVAHANVAALRDEGIVQRVKDDIGPYMQKRWRETFSRFEHVDDVRGVGMVQAFTLVKNKAKRELFPDFGEIGTLCRDIFFRNNLIMRACGDHIVSAPPLVMTRAEVDEMLAVAERCLEEFEQTLKARGLA"}}, "key": {"[1]": {"conditions": "Samsonova et al., 2003; cited from earlier work"}, "[2]": {"conditions": "Haywood et al. 1988; Slater et al. 1998; cited from earlier work"}, "[3]": {"experiment": "Carboxylate reductase activity assay, pimelate to pimelate semialdehyde (NADPH consumption)", "assay_type": "biochemical", "conditions": "purified enzyme enhanced by sfp gene product, 2 mM pimelate, room temperature, 20 min; against empty vector control; FIG. 10", "method": "A sequence encoding a HIS-tag was added to the genes from Segniliparus rugosus and Segniliparus rotundus that encode the carboxylate reductases of SEQ ID NOs: 4 and 7, respectively (see FIGS. 7C and 7F), such that N-terminal HIS tagged carboxylate reductases could be produced. Each of the modified genes was cloned into a pET Duet expression vector along with a sfp gene encoding a HIS-tagged phosphopantetheine transferase from Bacillus subtilis, both under the T7 promoter. Each expression vector was transformed into a BL21[DE3] E. coli host and the resulting recombinant E. coli strains were cultivated at 37° C. in a 250 mL shake flask culture containing 50 mL LB media and antibiotic selection pressure, with shaking at 230 rpm. Each culture was induced overnight at 37° C. using an auto-induction media.\nThe pellet from each induced shake flask culture was harvested via centrifugation. Each pellet was resuspended and lysed via sonication, and the cell debris was separated from the supernatant via centrifugation. […]\nEnzyme activity assays (i.e., from pimelate to pimelate semialdehyde) were performed in triplicate in a buffer composed of a final concentration of 50 mM HEPES buffer (pH=7.5), 2 mM pimelate, 10 mM MgCl2, 1 mM ATP and 1 mM NADPH. […] The consumption of NADPH was monitored by absorbance at 340 nm."}, "[4]": {"experiment": "ω-transaminase activity assay, reverse direction (7-aminoheptanoate to pimelate semialdehyde)", "assay_type": "biochemical", "conditions": "cell free extract, 10 mM 7-aminoheptanoate, 10 mM pyruvate, 25° C., 4 h; against empty vector control; FIG. 15", "method": "(§1) A sequence encoding an N-terminal His-tag was added to the genes from Chromobacterium violaceum, Pseudomonas syringae, Rhodobacter sphaeroides, and Vibrio Fluvialis encoding the ω-transaminases of SEQ ID NOs: 8, 10, 11 and 13, respectively (see FIGS. 7F and 7G) such that N-terminal HIS tagged ω-transaminases could be produced. Each of the resulting modified genes was cloned into a pET21a expression vector under control of the T7 promoter and each expression vector was transformed into a BL21[DE3] E. coli host. The resulting recombinant E. coli strains were cultivated at 37° C. in a 250 mL shake flask culture containing 50 mL LB media and antibiotic selection pressure, with shaking at 230 rpm. Each culture was induced overnight at 16° C. using 1 mM IPTG.\n(§2) The pellet from each induced shake flask culture was harvested via centrifugation. Each pellet was resuspended and lysed via sonication. The cell debris was separated from the supernatant via centrifugation and the cell free extract was used immediately in enzyme activity assays.\nEnzyme activity assays in the reverse direction (i.e., 7-aminoheptanoate to pimelate semialdehyde) were performed in a buffer composed of a final concentration of 50 mM HEPES buffer (pH=7.5), 10 mM 7-aminoheptanoate, 10 mM pyruvate and 100 μM pyridoxyl 5′ phosphate. Each enzyme activity assay reaction was initiated by adding cell free extract of the ω-transaminase gene product or the empty vector control to the assay buffer containing the 7-aminoheptanoate and incubated at 25° C. for 4 h, with shaking at 250 rpm. The formation of L-alanine from pyruvate was quantified via RP-HPLC."}, "[5]": {"conditions": "Kaulmann et al., 2007; cited from earlier work"}, "[6]": {"experiment": "ω-transaminase activity assay, forward direction (pimelate semialdehyde to 7-aminoheptanoate)", "assay_type": "biochemical", "conditions": "concluded from reversibility of the ω-transaminase activity", "method": "as §1, §2\nEnzyme activity in the forward direction (i.e., pimelate semialdehyde to 7-aminoheptanoate) was confirmed for the transaminases of SEQ ID NO 10, SEQ ID NO 11 and SEQ ID NO 13. Enzyme activity assays were performed in a buffer composed of a final concentration of 50 mM HEPES buffer (pH=7.5), 10 mM pimelate semialdehyde, 10 mM L-alanine and 100 μM pyridoxyl 5′ phosphate. Each enzyme activity assay reaction was initiated by adding a cell free extract of the ω-transaminase gene product or the empty vector control to the assay buffer containing the pimelate semialdehyde and incubated at 25° C. for 4 h, with shaking at 250 rpm. The formation of pyruvate was quantified via RP-HPLC."}, "[7]": {"experiment": "ω-transaminase activity assay, 7-aminoheptanol to 7-oxoheptanol", "assay_type": "biochemical", "method": "A nucleotide sequence encoding an N-terminal His-tag was added to the Chromobacterium violaceum, Pseudomonas syringae and Rhodobacter sphaeroides genes encoding the ω-transaminases of SEQ ID NOs: 8, 10 and 11, respectively (see FIGS. 7F and 7G) such that N-terminal HIS tagged ω-transaminases could be produced. The modified genes were cloned into a pET21a expression vector under the T7 promoter. Each expression vector was transformed into a BL21[DE3] E. coli host. Each resulting recombinant E. coli strain were cultivated at 37° C. in a 250 mL shake flask culture containing 50 mL LB media and antibiotic selection pressure, with shaking at 230 rpm. Each culture was induced overnight at 16° C. using 1 mM IPTG.\nas §2\nEnzyme activity assays in the reverse direction (i.e., 7-aminoheptanol to 7-oxoheptanol) were performed in a buffer composed of a final concentration of 50 mM HEPES buffer (pH=7.5), 10 mM 7-aminoheptanol, 10 mM pyruvate, and 100 μM pyridoxyl 5′ phosphate. Each enzyme activity assay reaction was initiated by adding cell free extract of the ω-transaminase gene product or the empty vector control to the assay buffer containing the 7-aminoheptanol and then incubated at 25° C. for 4 h, with shaking at 250 rpm. The formation of L-alanine was quantified via RP-HPLC."}}}
{"molecule": "B1", "values": [{"measurement": "diamine substrate range", "setting": "[1]", "value": "accepts a broad range of diamine carbon chain length substrates"}]}
{"molecule": "B2", "values": [{"measurement": "substrates accepted, forming the CoA-activated C7 aliphatic backbone", "setting": "[2]", "value": "accepts propanoyl-CoA and pentanoyl-CoA as substrates"}]}
{"molecule": "B3", "values": [{"measurement": "acceptance of pimelate as substrate (NADPH consumption, absorbance at 340 nm)", "setting": "[3]", "value": "accepted pimelate as substrate"}]}
{"molecule": "B4", "values": [{"measurement": "acceptance of 7-aminoheptanoate as substrate (formation of L-alanine from pyruvate, RP-HPLC)", "setting": "[4]", "value": "accepted 7-aminoheptanote as substrate"}, {"measurement": "activity accepting 6-aminohexanoic acid as amino donor", "setting": "[5]", "value": "accepting 6-aminohexanoic acid as amino donor"}, {"measurement": "acceptance of pimelate semialdehyde as substrate, synthesizing 7-aminoheptanoate (conclusion from confirmed reversibility)", "setting": "[6]", "value": "accepted pimelate semialdehyde as substrate"}, {"measurement": "acceptance of 7-aminoheptanol as substrate (formation of L-alanine, RP-HPLC)", "setting": "[7]; cell free extract, 10 mM 7-aminoheptanol, 10 mM pyruvate, 25° C., 4 h, against empty vector control, FIG. 19", "value": "accepted 7-aminoheptanol as substrate"}, {"measurement": "acceptance of 7-oxoheptanol as substrate, forming 7-aminoheptanol (concluded from reversibility)", "setting": "[7]; concluded from reversibility of the ω-transaminase activity (Example 2)", "value": "accept 7-oxoheptanol as substrate"}]}
